Earlier results as cited in patent US20240199736A1, “COMBINATION THERAPY INVOLVING ANTIBODIES AGAINST CLAUDIN 18.2 FOR TREATMENT OF CANCER” (ASTELLAS PHARMA INC., priority 2021, published 2024).

Columns and labels:
[1] = molecular target: splice variant 1 of Claudin 18 (CLDN18.1) (Homo sapiens, UniProt P56856)
[2] = molecular target: first extracellular domain (ECD1) of CLDN18.2 (Homo sapiens, UniProt P56856)

Binding to other claudin family members including CLDN18.1 [1]: does not bind
Recognition of ECD1 of CLDN18.2 [2]: high affinity and specificity
Substance: IMAB362: chimeric IgG1 antibody directed against CLDN18.2; heavy chain SEQ ID NO: 51, light chain SEQ ID NO: 24
